We go through one molecule from publication PMC6305486.

The experiment has as its target FtsQ_(50–276), P06136. In words: BLI. The note with it: chain shown with the change; GST-e5-FtsB (mutant) in complex with k5-FtsL immobilized; FtsQ analyte 0-60 µM; parent: 0.24 ± 0.01.

By Kd is commonly meant the free concentration of one partner at which half of the binding sites on the other are occupied at equilibrium, for simple one-to-one binding.

Chain of FtsQ_(50–276), P06136 (P06136 50-276): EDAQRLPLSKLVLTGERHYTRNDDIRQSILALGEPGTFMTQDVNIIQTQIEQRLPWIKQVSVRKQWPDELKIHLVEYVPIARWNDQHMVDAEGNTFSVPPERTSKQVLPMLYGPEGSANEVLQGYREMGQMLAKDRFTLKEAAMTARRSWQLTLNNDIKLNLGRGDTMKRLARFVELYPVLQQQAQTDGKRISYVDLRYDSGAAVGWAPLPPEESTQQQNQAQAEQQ

B1: GST-fused e5-FtsB_(25–103)/k5-FtsL_(64–121) complex (WT), P0A6S5;P0AEN4 E68A (protein)
chain 1: GIHDYTRVNDDVAAQQATNAKLKARNDQLFAEIDDLNGGQEALAERARNELSMTRPGETFYRLVPDASKRAQSAGQNNR
chain 2: TAQREQLVLERDALDIEWRNLILEENALGDHSRVERIATEKLQMQHVDPSQENIVVQK
As to B1, the Kd stood at 2400 nM.
